Target: calmodulin (CaM) (UniProt P62157 1-149)
Assay: cell-based or functional assay

fold induction of the catalytic activity (MLC phosphorylation, in vitro kinase assay) upon addition of Ca2+/CaM against EGTA: 5.7 fold
B1: FLAG-DAPK2 WT (enzyme)
chain: MFQASMRSPNMEPFKQQKVEDFYDIGEELGSGQFAIVKKCREKSTGLEYAAKFIKKRQSRASRRGVSREEIEREVSILRQVLHHNVITLHDVYENRTDVVLILELVSGGELFDFLAQKESLSEEEATSFIKQILDGVNYLHTKKIAHFDLKPENIMLLDKNIPIPHIKLIDFGLAHEIEDGVEFKNIFGTPEFVAPEIVNYEPLGLEADMWSIGVITYILLSGASPFLGDTKQETLANITAVSYDFDEEFFSQTSELAKDFIRKLLVKETRKRLTIQEALRHPWITPVDNQQAMVRRESVVNLENFRKQYVRRRWKLSFSIVSLCNHLTRSLMKKVHLRPDEDLRNCESDTEEDIARRKALHPRRRSSTS

Reference: publication PMC5931534, “Non-canonical activation of DAPK2 by AMPK constitutes a new pathway linking metabolic stress to autophagy” (Nature Communications, 2018)
